This note sets out measurements from patent publication US20230052680A1.

In assay [1] the target is human FGFR2b on cells (human) (UniProt P21802). The assay can be described thus: flow cytometry on KATOIII cells; sample name as printed 'KATOIII_36C 0004nM_025.fcs' (no decimal point printed). For orientation: Flow cytometry measures light scatter and fluorescence of single cells or particles in a stream.
The target of assay [2] is human FGFR2b (beta)-Fc (human) (UniProt P21802). Description: SPR (Biacore T200); hFGFR2b-Fc amine-coupled to CM5 chip, antibody injected at 0-200 nM. On the technique in general: In SPR one partner is held on a chip, and binding of the other changes the refractive index at the surface.
The target in assay [3] is human FGFR2b on cells (human) (UniProt P21802). Description: flow cytometry on KATOIII cells; sample name as printed 'KATOIII_36C 00009nM_026.fcs' (no decimal point printed).
Assay [4] shares this target. The assay can be described thus: flow cytometry on KATOIII cells; sample name as printed 'KATOIII_36C 002 nM_024.fcs' (no decimal point printed).
The target is the same in assay [5]. Description: flow cytometry on KATOIII cells; sample name as printed 'KATOIII_36C 01nM_023.fcs' (no decimal point printed).
The target in assay [6] is human FGFR2b (beta)-Fc (human) (UniProt P21802). The assay can be described thus: surface plasmon resonance (Biacore T200), hFGFR2b-Fc amine-coupled to a CM5 chip, antibody injected.
The target of assay [7] is recombinant human FGFR2b-Fc (murine Fc) (human) (UniProt P21802). The assay can be described thus: ELISA, plate coated with 0.1 ug/ml human FGFR2b-Fc, anti-human IgG HRP detection. Background: In an ELISA, binding on a coated surface is turned into a signal by an enzyme label.
Assay [8] addresses human FGFR2b on cells (human) (UniProt P21802). The assay can be described thus: flow cytometry on FGFR2b expressing KATOIII cells.
Assay [9] has the same target. The assay can be described thus: flow cytometry on KATOIII cells; sample name as printed 'KATOIII_36C 05nM_022.fcs' (no decimal point printed).
Assay [10] concerns the target human FGFR2b (beta)-Fc (human) (UniProt P21802). Description: ELISA, plate coated with HuFGFR2b.

B1: Ab 36c (antibody, V domains shown)
VH: QPYLQQSGAELVRPGASVKMSCKASGYTFTSYNMHWVKQTPRQGLEWIGAIFPENGDTSYNQKFKGKATLTVDKSSSTAYMQLSSLTSEDSAVYFCARGGFDYWGQGTTLTVSS
VL: DIVMTQSHKFMSTSVGDRVSITCKASQDVSTNVAWYQQKPGQSPKLLIFSASYRYTGVPDRFAGSGSGTDFTFTISSVQAEDLAVYYCQQHYSSPYTFGGGTKLDIK
For B1, the Mean : FITC-A worked out at 128 in [1]; 121 in assay [3]; 199 in [4]; 455 in assay [5]; 1800 in [9]. Besides, the Kd worked out at 0.187 nM in assay [2] and 0.189 nM in [6]. In addition, in assay [6], the koff was 2.44e-05 s⁻¹. Besides, the kon in [6] is 129000 M⁻¹ s⁻¹. For the same molecule, the EC50 (read off the curve) in assay [7] stood at 0.3 nM. Further, the EC50 in assay [8] was 8 nM.

B2: Ab 36 (antibody, V domains shown)
VH: B1 VH
VL: B1 VL
In assay [10], B2 gave an EC50 (read off the curve) of 0.2 nM.

B3: Ab hu36-2 (antibody, human IgG1, V domains shown)
VH: QVQLVQSGAEVKKPGSSVKVSCKASGYTFTSYNMHWVRQAPGQGLEWIGAIFPENGDTSYNQKFKGRATITADKSTSTAYMELSSLRSEDTAVYYCARGGFDYWGQGTTVTVSS
VL: DIQMTQSPSSLSASVGDRVTITCKASQDVSTNVAWYQQKPGKAPKLLIFSASYRYTGVPSRFSGSGSGTDFTFTISSLQPEDIATYYCQQHYSSPYTFGQGTKLEIK
As to B3, in assay [2], the Kd turned out to be 0.189 nM. In assay [6], the Kd amounted to 0.187 nM, the koff came out at 2.39e-05 s⁻¹ and the kon was 128000 M⁻¹ s⁻¹.

By Kd is commonly meant the concentration at which binding is half-saturated. A low value points to a tighter complex. For orientation: koff means the first-order rate constant of dissociation. The kon is the rate constant with which the complex forms. What is called EC50 (read off the curve) is the concentration at which the effect is half-maximal. Usually EC50 stands for the concentration that produces a half-maximal response.
